Measurements from US20240018255A1 (QURE BIOTECHNOLOGY SHANGHAI, published 2024).
Numbering of substitutions follows the chain as printed.

B1: QP026249 (control antibody, variable regions of KWAR23, human IgG4/kappa) (antibody)
light: QIVLTQSPAIMSASPGEKVTLTCSASSSVSSSYLYWYQQKPGSSPKLWIYSTSNLASGVPARFSGSGSGTSYSLTISSMEAEDAASYFCHQWSSYPRTFGAGTKLELKRTVAAPSVFIFPPSDEQLKSGTASVVCLLNNFYPREAKVQWKVDNALQSGNSQESVTEQDSKDSTYSLSSTLTLSKADYEKHKVYACEVTHQGLSSPVTKSFNRGEC
heavy: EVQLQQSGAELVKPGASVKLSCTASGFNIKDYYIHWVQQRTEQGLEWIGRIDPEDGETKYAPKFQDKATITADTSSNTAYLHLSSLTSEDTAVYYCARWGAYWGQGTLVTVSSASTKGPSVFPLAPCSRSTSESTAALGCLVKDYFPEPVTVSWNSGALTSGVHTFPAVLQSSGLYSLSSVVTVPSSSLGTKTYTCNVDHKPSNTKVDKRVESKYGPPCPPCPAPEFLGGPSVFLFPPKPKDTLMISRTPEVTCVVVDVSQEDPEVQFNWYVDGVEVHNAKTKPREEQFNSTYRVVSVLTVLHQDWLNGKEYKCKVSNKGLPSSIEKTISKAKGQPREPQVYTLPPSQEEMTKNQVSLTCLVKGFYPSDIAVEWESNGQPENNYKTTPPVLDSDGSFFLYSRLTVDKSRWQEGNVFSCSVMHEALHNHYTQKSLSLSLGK
notes: also called KWAR23 (QP026249)
B2: QP256253 (humanized anti-SIRPα antibody, QP163164 humanized clone) (antibody, human IgG4, V domains shown)
VH: QVQLVQSGAEVKKPGASVKVSCKASGYTFTNYWINWVRQAPGQGLEWIAMIDPSDSETHYNQIFKDRATLTTDTSTSTAYMELRSLRSDDTAVYYCAMDYGSLYAMDYWGRGTLVTVSS
VL: DIVLTQSPDSLAVSLGERATINCRASKSVSSSGYNYIFWYQQKPGQPPKLLIYLASNLDSGVPDRFSGSGSGTDFTLTISSLQAEDVAVYYCQHSRELPTFGQGTKLEIK
B3: QP2561589 (affinity-matured humanized anti-SIRPα antibody) (antibody, IgG4, V domains shown)
VH: B2 VH
VL: B2 VL with H94E, R96W
notes: hIgG4 constant region, kappa CL
B4: QP2561586 (affinity-matured humanized anti-SIRPα antibody) (antibody, IgG4, V domains shown)
VH: B2 VH
VL: B2 VL with H94E
notes: as for B3
B5: QP256279 (affinity-matured humanized anti-SIRPα antibody) (antibody, IgG4, V domains shown)
VH: B2 VH
VL: B2 VL with K27Q, S30R, Y36W, L58R
notes: full-length IgG with hIgG4 constant region and kappa CL; also called CHO71 (QP256279 stably expressed in CHOS cells)

Columns and labels:
[1] = target: T1, SIRPα V1 fusion Fc (mouse IgG2a) (human; mouse); assay: ELISA, plate coated with SIRPα V1-Fc (mouse IgG2a), anti-hFab secondary, OD450
T1 construct: No linker mentioned between SIRPα and Fc
T1 chain: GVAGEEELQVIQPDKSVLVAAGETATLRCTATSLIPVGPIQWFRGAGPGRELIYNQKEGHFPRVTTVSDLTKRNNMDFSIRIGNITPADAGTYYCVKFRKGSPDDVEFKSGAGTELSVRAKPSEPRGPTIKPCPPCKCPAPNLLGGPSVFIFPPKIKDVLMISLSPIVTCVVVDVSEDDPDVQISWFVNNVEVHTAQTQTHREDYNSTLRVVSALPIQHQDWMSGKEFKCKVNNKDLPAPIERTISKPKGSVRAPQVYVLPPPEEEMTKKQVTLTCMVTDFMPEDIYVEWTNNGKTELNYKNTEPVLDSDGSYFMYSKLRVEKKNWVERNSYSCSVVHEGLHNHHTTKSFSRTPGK
Protocol: (§1) The plate was coated with SIRPα V1/V2/V3/V4/V5/V6/V7/V8/V9/V10 at 1 μg/ml, 60 μl/well overnight at 4° C., and washed twice with PBST; blocked with 5% non-fat milk (Sangon) of 200 μl/well, incubated at room temperature for 1 h, and washed twice with PBST. Antibody was incubated at 10 μg/ml, diluted with 5 times for 10 gradients, 60 μl/well, incubated at room temperature for 1 h, and washed with PBST 5 times. Secondary antibody incubation: anti-hFab 1:10000, 60 μl/well, incubated at room temperature for 1 h, washed with PBST 5 times. Developing: TMB was equilibrated at room temperature for 1 h in advance, 100 μl/well, to develop for 10 min, 2M H₂SO₄ of 50 ul/well was used for termination, and reading was performed at 450 nm on microplate reader.

[2] = target: T2, SIRPα V6 fusion Fc (mouse IgG2a) (human; mouse); assay: ELISA, plate coated with SIRPα V6-Fc (mouse IgG2a), anti-hFab secondary, OD450
T2 construct: No linker mentioned between SIRPα and Fc
T2 chain: T1 chain with S79P
Protocol: as §1

[3] = target: SIRPα V7 fusion Fc (mouse IgG2a) (human; mouse); assay: ELISA, plate coated with SIRPα V7-Fc (mouse IgG2a), anti-hFab secondary, OD450
Protocol: as §1

[4] = target: SIRPα V8 fusion Fc (mouse IgG2a) (human; mouse); assay: ELISA, plate coated with SIRPα V8-Fc (mouse IgG2a), anti-hFab secondary, OD450
Protocol: as §1

[5] = target: T3, SIRPα V9 fusion Fc (mouse IgG2a) (human; mouse); assay: ELISA, plate coated with SIRPα V9-Fc (mouse IgG2a), anti-hFab secondary, OD450
T3 construct: No linker mentioned between SIRPα and Fc
T3 chain: T1 chain with G83S
Protocol: as §1

[6] = target: T4, human SIRPα naturally expressed on human renal clear cell adenocarcinoma 786-O cells (human, UniProt P78324 31-504); assay: FACS on 786-O cells, PE-anti human FC secondary, MFI; unit from the axis Log[Abs,nM]
T4 construct: whole, on cells
Protocol: Blocking: the cells were resuspended with 2% FBS and were seeded into 96-well U bottom plate with 2E5/well, 200 μl/well, then subjected to ice bath for 1 h. Centrifugation was performed at 300 g for 3 min, and the supernatant was discarded. Antibody incubation: 10 μg/ml antibodies for incubation were diluted at 1:3, 100 μl/well, and subjected to ice bath for 1 h. Centrifugation was performed, and the supernatant was discarded. Pre-cooled PBS was added at 200 μl/well, centrifuged at 300 g for 5 min to discard supernatant, which was repeated twice. Secondary antibody: PE-anti human FC (1:200) 50 μl/well was subjected to ice bath for 0.5h. Centrifugation was performed and the supernatant was discarded. Pre-cooled PBS was added at 200 μl/well, centrifuged at 300 g for 5 min to discard supernatant, which was repeated 3 times. The mean fluorescence values were read on FACS.

[7] = target: T5, SIRPα V2 fusion Fc (mouse IgG2a) (human; mouse); assay: ELISA, plate coated with SIRPα V2-Fc (mouse IgG2a), anti-hFab secondary, OD450
T5 construct: No linker mentioned between SIRPα and Fc
Protocol: as §1

[8] = target: T6, SIRPα V4 fusion Fc (mouse IgG2a) (human; mouse); assay: ELISA, plate coated with SIRPα V4-Fc (mouse IgG2a), anti-hFab secondary, OD450
T6 construct: No linker mentioned between SIRPα and Fc
T6 chain: T1 chain with E7G, L18S, T24S, T26I, R28H
Protocol: as §1

[9] = target: SIRPα V10 fusion Fc (mouse IgG2a) (human; mouse); assay: ELISA, plate coated with SIRPα V10-Fc (mouse IgG2a), anti-hFab secondary, OD450
Protocol: as §1

T4 sequence (P78324 31-504): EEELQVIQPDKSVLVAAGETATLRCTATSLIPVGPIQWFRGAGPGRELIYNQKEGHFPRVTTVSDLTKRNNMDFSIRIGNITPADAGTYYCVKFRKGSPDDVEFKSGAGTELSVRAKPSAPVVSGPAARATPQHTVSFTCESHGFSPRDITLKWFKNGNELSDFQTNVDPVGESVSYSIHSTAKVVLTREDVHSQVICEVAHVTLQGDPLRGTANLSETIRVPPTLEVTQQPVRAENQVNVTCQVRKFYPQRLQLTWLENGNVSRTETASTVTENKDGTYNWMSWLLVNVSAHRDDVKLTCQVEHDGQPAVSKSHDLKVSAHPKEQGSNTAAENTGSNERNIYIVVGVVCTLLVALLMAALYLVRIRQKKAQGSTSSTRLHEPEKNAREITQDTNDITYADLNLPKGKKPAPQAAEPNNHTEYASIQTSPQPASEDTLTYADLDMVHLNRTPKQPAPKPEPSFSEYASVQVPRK

Binder | EC50 (read off the curve) [1] [pM] | EC50 (read off the curve) [3] [pM] | EC50 [6] [pM] | also measured
B1 | ~200 | ~100 | 245 | EC50 (read off the curve) [2]: ~100 pM; EC50 (read off the curve) [4]: ~200 pM; EC50 (read off the curve) [5]: ~200 pM
B2 | – | – | 204 | –
B3 | – | – | 188 | –
B4 | – | – | 217 | –
B5 | ~80 | ~70 | – | EC50 (read off the curve) [7]: ~70 pM; EC50 (read off the curve) [8]: ~60 pM; EC50 (read off the curve) [9]: ~70 pM
